Data set [1] is classed as in vitro ADME. As to conditions: 2 h. As for the experimental part:
100 μL of the radiolabeling solution of each ^68Ga-labeled tracer were added to preheated (37 °C) 1000 μL human serum (male, AB, Sigma Aldrich, USA) in triplicates and incubated at 37 °C. At 1 and 2 h, 100 µL aliquots were taken, mixed with 100 µL ice-cold acetonitrile, and centrifuged at 4 G for 5 min at 4 °C. The corresponding filtrates were kept on ice until HPLC analysis. The supernatants were then analyzed by radio-RP-HPLC and fractions of intact compounds were calculated from the HPLC chromatograms. (gradient 4,Gamma-ray detector: 100–900 keV, injection volume: 20 μl). tR ([^68Ga]Ga-7) = 12.1 min, tR ([^68Ga]Ga-8) = 14.4 min, tR ([^68Ga]Ga-9) = 25.2 min.

The nature of another data set: in vivo. Also noted: species or system mice. As to conditions: male, NOD/SCID, mouse, iv, total radioactivity. As for the experimental part:
The capability of [^68Ga]Ga-9 to delineate PSMA-expressing tumors in vivo was evaluated by small-animal PET imaging at 1 and 2 h p.i. For this, mice bearing LNCaP xenografts (n = 3) were injected with 1–3 MBq (250–500 pmol) [^68Ga]Ga-9 into a tail vein and subjected to micro-PET/CT imaging at 1 h post-injection (p.i.). PSMA specificity was confirmed by co-injection of 2-PMPA (1 µmol mouse^−1). […] LNCaP tumors were clearly visualized by [^68Ga]Ga-9 and only the kidneys and the bladder as the major excretory organs were visible. […] The kidney uptake was 67.86 ± 8.35% IA g^−1 (n = 3) in the normal group vs. 19.9 ± 4.43% IA g^−1 in the blocking group (n = 3). […] The blood uptake was relatively high at 1 h p.i. with 3.62 ± 0.42% IA g^−1. Uptake in the muscles was low with 0.32 ± 0.12% IA g^−1. […]
For PET imaging studies, mice were injected with 100 µL sterile saline formulations of 250–500 pmol [^68Ga]Ga-9 (1–3 MBq) by intravenous tail-vein injection and anesthetized with isoflurane (2–4% in air). […] Image counts per second per voxel (cps voxel^−1) were calibrated to activity concentrations (Bq mL^−1) by measuring a 3.5 cm cylinder phantom filled with a known concentration of radioactivity. […]
Competitive inhibition (blocking) studies were also performed in vivo and measured using static PET imaging to investigate the specificity of the radiotracers for PSMA. […]

For data set [2], the system named is patient with metastatic prostate cancer. Put plainly: Clinical PET/CT imaging. As to conditions: human, in vivo. On the procedure: PET/CT was performed approximately 1, 2, and 3 h after intravenous injection of 107 MBq of [^68Ga]Ga-9 and 1 h after injection of 113 MBq [^68Ga]Ga-PSMA-11 in a patient with metastatic prostate cancer. Whole body imaging extending from vertex to mid-femur was performed in 3D-ToF mode on a Biograph mCT 40 scanner (Siemens Medical Solutions, Knoxville, TN, USA) with an extended field of view of 21.4 cm. PET acquisition time was 3 min bed position^−1. Low-dose CT acquisition was performed for attenuation correction and anatomical localization using an X-ray tube voltage of 120 kV and a modulation of the tube current (maximal tube current: 30 mA; CARE Dose 4D software Siemens Healthineers, Erlangen, Germany) followed by reconstruction with a soft tissue reconstruction kernel (Bf37) to a slice thickness of 5 mm (increment 2–4 mm). PET emission data were additionally corrected for decay, randoms and scatter and reconstructed applying an iterative 3D ordered subset expectation maximization algorithm (3 iterations; 21 subsets) withGaussian filtering to transaxial resolution of 5 mm at full width at half maximum. The matrix size was 200 × 200 mm and the reconstructed pixel size was 5.0 mm.

`O=C(O)CC[C@H](NC(=O)N[C@@H](CCCCNC(=O)[C@H](Cc1ccc2ccccc2c1)NC(=O)[C@H]1CC[C@H](CNC(=O)CCCCn2ccnc2CN2CCN(Cc3nccn3CCCCC(=O)NC[C@H]3CC[C@H](C(=O)N[C@@H](Cc4ccc5ccccc5c4)C(=O)NCCCC[C@H](NC(=O)N[C@@H](CCC(=O)O)C(=O)O)C(=O)O)CC3)CCN(Cc3nccn3CCCCC(=O)NC[C@H]3CC[C@H](C(=O)N[C@@H](Cc4ccc5ccccc5c4)C(=O)NCCCC[C@H](NC(=O)N[C@@H](CCC(=O)O)C(=O)O)C(=O)O)CC3)CC2)CC1)C(=O)O)C(=O)O` [^nat/68Ga-9, metal not drawn]: the “Metabolic stability in human serum” value in data set [1] is on record as “no significant degradation”. In the data set “in vivo” (Tumor-to-kidney ratio), the tissue to tissue ratio at 1 h was found to be 0.24. The tissue to tissue ratio at 1 h in “in vivo” (Tumor-to-liver ratio) turned out to be 5.17. In addition, in data set [2], the “SUVpeak in the parotid gland” value came to 26.7; the “SUVpeak in the submandibular gland” value amounted to 23.5; the SUVpeak kidneys was determined as 33.1; the “SUVpeak, first target lesion” value is 23.7. In data set [2], the “SUVpeak, second target lesion” value came to 12.8 and the “SUVpeak, third target lesion” value was 10.3.

Source of the values: paper PMC11635053, “Development of a homotrimeric PSMA radioligand based on the NOTI chelating platform” (EJNMMI Radiopharmacy and Chemistry, 2024).
